Where two headings read alike, the source gives them in different places.
Columns and labels:
GDF11 [1] = target: T1, GDF11 (UniProt O95390 299-407); assay: Biacore SPR; † very low signal
T1 construct: also called BMP11
T1 sequence (looked up): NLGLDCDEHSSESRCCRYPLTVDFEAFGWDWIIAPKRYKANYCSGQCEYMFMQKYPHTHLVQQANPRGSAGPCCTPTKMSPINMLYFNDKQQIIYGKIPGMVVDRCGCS
Protocol: (§1) Ligands were injected and allowed to flow over the captured receptor protein.

GDF11 [2] = target: T1, GDF11; assay: Biacore SPR; † very low signal; remark: listed apart in the source
Protocol: as §1

activin A [3] = target: T2, activin A (UniProt P08476 311-426); assay: Biacore SPR
T2 sequence (looked up): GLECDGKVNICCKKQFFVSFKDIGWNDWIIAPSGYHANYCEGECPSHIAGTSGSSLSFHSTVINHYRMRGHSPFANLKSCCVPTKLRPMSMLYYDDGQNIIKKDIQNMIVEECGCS
Protocol: as §1

BMP15 = target: T3, BMP15 (UniProt O95972 268-392); assay: Biacore SPR
T3 construct: also called GDF9b
T3 sequence (looked up): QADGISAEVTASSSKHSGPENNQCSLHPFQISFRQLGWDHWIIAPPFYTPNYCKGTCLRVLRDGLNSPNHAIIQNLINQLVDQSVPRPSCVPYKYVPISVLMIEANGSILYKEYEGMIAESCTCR
Protocol: as §1

BMP9 = target: T4, BMP9 (UniProt Q9UK05 320-429); assay: Biacore SPR
T4 construct: also called GDF2
T4 sequence (looked up): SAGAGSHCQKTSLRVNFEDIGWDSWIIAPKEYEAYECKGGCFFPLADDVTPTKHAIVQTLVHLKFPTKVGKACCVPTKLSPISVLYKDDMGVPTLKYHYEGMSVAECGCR
Protocol: as §1

activin AB [4] = target: T5, activin AB (UniProt P08476 311-426; P09529 293-407); assay: Biacore SPR
T5 sequence (looked up) 1: T2 sequence (looked up)
T5 sequence (looked up) 2: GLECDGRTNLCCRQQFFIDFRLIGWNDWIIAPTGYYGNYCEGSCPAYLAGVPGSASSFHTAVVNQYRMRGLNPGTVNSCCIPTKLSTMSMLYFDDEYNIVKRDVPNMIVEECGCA
Protocol: as §1

BMP10 = target: T6, BMP10 (UniProt O95393 317-424); assay: Biacore SPR
T6 sequence (looked up): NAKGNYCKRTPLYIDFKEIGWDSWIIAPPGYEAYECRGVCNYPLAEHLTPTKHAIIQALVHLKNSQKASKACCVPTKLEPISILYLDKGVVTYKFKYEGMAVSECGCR
Protocol: as §1

activin A [5] = target: T2, activin A; assay: Biacore SPR; remark: listed apart in the source
Protocol: as §1

GDF11 [6] = target: T1, GDF11; assay: Biacore SPR
Protocol: as §1

activin AC = target: T7, activin AC (UniProt P08476 311-426; P55103 237-352); assay: Biacore SPR
T7 sequence (looked up) 1: T2 sequence (looked up)
T7 sequence (looked up) 2: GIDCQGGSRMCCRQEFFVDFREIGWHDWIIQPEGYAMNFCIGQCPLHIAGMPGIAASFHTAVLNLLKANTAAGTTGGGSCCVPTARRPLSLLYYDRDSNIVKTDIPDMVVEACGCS
Protocol: as §1

BMP6 = target: T8, BMP6 (UniProt P22004 382-513, limits assumed); assay: Biacore SPR
T8 sequence (looked up): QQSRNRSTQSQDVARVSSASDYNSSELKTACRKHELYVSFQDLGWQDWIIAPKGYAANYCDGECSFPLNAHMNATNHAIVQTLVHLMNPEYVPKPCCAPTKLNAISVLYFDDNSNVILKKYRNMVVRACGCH
Protocol: as §1

activin AB [7] = target: T5, activin AB; assay: Biacore SPR; remark: listed apart in the source
Protocol: as §1

BMP7 = target: T9, BMP7 (UniProt P18075 293-431); assay: Biacore SPR
T9 sequence (looked up): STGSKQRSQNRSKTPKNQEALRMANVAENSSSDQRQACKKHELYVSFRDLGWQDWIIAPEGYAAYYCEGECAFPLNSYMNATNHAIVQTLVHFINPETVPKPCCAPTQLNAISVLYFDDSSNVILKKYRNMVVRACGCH
Protocol: as §1

activin B = target: T10, activin B (UniProt P09529 293-407); assay: Biacore SPR
T10 sequence (looked up): T5 sequence (looked up) 2
Protocol: as §1

activin A [8] = target: T2, activin A; assay: Biacore SPR; remark: listed apart in the source
Protocol: as §1

GDF11 [9] = target: T1, GDF11; assay: Biacore SPR; remark: listed apart in the source
Protocol: as §1

B1: ALK4-Fc homodimer (Fc fusion, UniProt P36896 24-126, looked up, not shown: a dimerising Fc or GST)
chain: SGPRGVQALLCACTSCLQANYTCETDGACMVSIFNLDGMEHHVRTCIPKVELVPAGKPFYCLSSEDLRNTHCCYTDYCNRIDLRVPSGHLKEPEHPSMWGPVE
notes: extracellular domain
B1 was tested, and the Kd (GDF11 [1]) was 0.97 nM, the Kd (GDF11 [2]) was 0.97 nM and the Kd (activin A [3]) was 20 nM. For the same binder, the koff (activin A [3]) was 0.012 s⁻¹, the kon (activin A [3]) was 580000 M⁻¹ s⁻¹ and the binding result (BMP15) was “no binding”. The binding result (BMP9) was “no binding”, the Kd (activin AB [4]) was 1.5 nM and the koff (activin AB [4]) was 0.0064 s⁻¹. For the same binder, the kon (activin AB [4]) was 4.4e+06 M⁻¹ s⁻¹, the binding result (BMP10) was “no binding” and the Kd (activin A [5]) was 20 nM. The koff (activin A [5]) was 0.012 s⁻¹, the kon (activin A [5]) was 580000 M⁻¹ s⁻¹ and the koff (GDF11 [6]) was 0.0048 s⁻¹. For the same binder, the kon (GDF11 [6]) was 5e+06 M⁻¹ s⁻¹, the binding result (activin AC) was “no binding” and the binding result (BMP6) was “no binding”. For the same binder, the Kd (activin AB [7]) was 2 nM, the koff (activin AB [7]) was 0.0036 s⁻¹ and the kon (activin AB [7]) was 1.8e+06 M⁻¹ s⁻¹. For the same binder, the binding result (BMP7) was “no binding”, the binding result (activin B) was “no binding” and the Kd (activin A [8]) was 20 nM. The koff (activin A [8]) was 0.012 s⁻¹, the kon (activin A [8]) was 580000 M⁻¹ s⁻¹ and the koff (GDF11 [9]) was 0.0048 s⁻¹. For the same binder, the kon (GDF11 [9]) was 5e+06 M⁻¹ s⁻¹.
